According to patent US20100095387A1 (published 2010):

Experiments:
[1] = target: T1, α3 subunit of the Na+/K+-ATPase, endogenous on mouse cells (cortical neurons, cortical slices, cardiac … (mouse, UniProt Q6PIC6 1-1013)); test: cell-based or functional assay
[2] = target: T1, α3 subunit of the Na+/K+-ATPase, …; test: competition against C-Ag20z8 on live cortical neurons, NIH Image analysis of immunofluorescence; competitor C-Ag20z8

B1: C-Ag20z8, 20-kD COOH-terminal fragment of mouse agrin, z8 splice variant (ligand, not shown: small tags and cut ends)
chain: MDPRTYIEYLNAVTESELTNEIPAEKALQSNHFELTLRTEATQGWLVLWIGKAAERADYMALAIVDGHLQLSYDLASQPVVLRSTVKVNTNRWLRVRAHREHREGSLQVGNEAPVTSSSPLGATQLDTDGALWLGGLQKLPVGQPLPKAYGTGFVGCLRNVVGHRQLHLLEDAVTKPELRPCPTLNSKLGPEQKLISEEDLNSAVDHHHHHH
[1]
  EC50 of c-fos induction (Fos in situ enzyme-linked immunoassay, cortical cultures): 0.0112 nM
  glutamate-induced Fos expression of agrin-deficient neurons grown 2 d in 5 nM fragment: 2.2 fold

B2: C-Ag20z0, 20-kD COOH-terminal fragment of mouse agrin, z0 splice variant (ligand, not shown: small tags and cut ends)
chain: MDPRTYIEYLNAVTESEKALQSNHFELTLRTEATQGWLVLWIGKAAERADYMALAIVDGHLQLSYDLASQPVVLRSTVKVNTNRWLRVRAHREHREGSLQVGNEAPVTSSSPLGATQLDTDGALWLGGLQKLPVGQPLPKAYGTGFVGCLRNVVGHRQLHLLEDAVTKPELRPCPTLNSKLGPEQKLISEEDLNSAVDHHHHHH
[1]
  EC50 of c-fos induction (Fos in situ enzyme-linked immunoassay, cortical cultures): 0.0133 nM
  glutamate-induced Fos expression of agrin-deficient neurons grown 2 d in 5 nM fragment: 2.2 fold

B3: C-Ag15, 15-kD COOH-terminal fragment of mouse agrin (37 amino acids deleted from the NH2 terminus of C-Ag20) (ligand, not shown: small tags and cut ends)
chain: MDPWIGKAAERADYMALAIVDGHLQLSYDLASQPVVLRSTVKVNTNRWLRVRAHREHREGSLQVGNEAPVTSSSPLGATQLDTDGALWLGGLQKLPVGQPLPKAYGTGFVGCLRNVVGHRQLHLLEDAVTKPELRPCPTLNSKLGPEQKLISEEDLNSAVDHHHHHH
[1]
  IC50 of inhibition of c-fos induction by 50 pM C-Ag95z8 (cortical cultures, single-site competition model): 64.5 pM

B4: rC-Agy4z8, soluble 95-kD COOH-terminal fragment of rat agrin, y4 z8 (ligand, UniProt P25304-5 1153-1951, looked up)
chain: AATGTTAAMATARATTVSRLPASSVTPRVYPSHTSRPVGRTTAPPTTRRPPTTATNMDRPRTPGHQQPSKSCDSQPCLHGGTCQDQDSGKGFTCSCTAGRGGSVCEKVQPPSMPAFKGHSFLAFPTLRAYHTLRLALEFRALETEGLLLYNGNARGKDFLALALLDGRVQFRFDTGSGPAVLTSLVPVEPGRWHRLELSRHWRQGTLSVDGETPVVGESPSGTDGLNLDTNLYVGGIPEEQVAMVLDRTSVGVGLKGCIRMLDINNQQLELSDWQRAAVQSSGVGECGDHPCLPNPCHGGALCQALEAGMFLCQCPPGRFGPTCADEKSPCQPNPCHGAAPCRVLSSGGAKCECPLGRSGTFCQTVLETAGSRPFLADFNGFSYLELKGLHTFERDLGEKMALEMVFLARGPSGLLLYNGQKTDGKGDFVSLALHNRHLEFCYDLGKGAAVIRSKEPIALGTWVRVFLERNGRKGALQVGDGPRVLGESPKSRKVPHTMLNLKEPLYIGGAPDFSKLARGAAVSSGFSGVIQLVSLRGHQLLTQEHVLRAVDVSPFADHPCTQALGNPCLNGGSCVPREATYECLCPGGFSGLHCEKGLVEKSVGDLETLAFDGRTYIEYLNAVIESPETLDSRALFSEKALQSNHFELSLRTEATQGLVLWIGKAAERADYMALAIVDGHLQLSYDLGSQPVVLRSTVKVNTNRWLRIRAHREHREGSLQVGNEAPVTGSSPLGATQLDTDGALWLGGLQKLPVGQALPKAYGTGFVGCLRDVVVGHRQLHLLEDAVTKPELRPCPTP
notes: domain: soluble 95-kD COOH-terminal fragment; Harvested in medium conditioned by transiently transfected COS-7 cells; concentration only estimated; also called Rat C-Ag4,8; rC-Ag95y4z8
[2]
  reduction of labeling (mean pixel intensity) at a 1:1 molar ratio: ~30%
